# According to PMC3107778:
# Assays:
# [1] = molecular target: YqiC of Salmonella enterica serovar Typhimurium (Salmonella enterica serovar Typhimurium ATCC 14028); experiment: SEC-MALS; static light scattering (90°) and refractive index coupled to a Superdex 75 column; eluted with PBS (methods) or 50 mM Tris-HCl, 150 mM NaCl pH 8; calibrated with BSA; single homogeneous peak
# [2] = molecular target: YqiC of Salmonella enterica serovar Typhimurium (Salmonella enterica serovar Typhimurium ATCC 14028); experiment: cross-linking; purified YqiC with ethylene glycol bis(succinimidylsuccinate) (EGS) at 0.5, 1.0 and 5.0 mM, 30 min at room temperature in phosphate-buffered saline, stopped with 50 mM Tris-HCl pH 8.0; products on 15% SDS-PAGE, Coomassie staining
substance,measurement,setting,value
YqiC of Salmonella enterica serovar Typhimurium (from UniProt A0A2X4T3G4 1-98) (natural protein),stoichiometry N,[1],3
same,stoichiometry N,[2],3
